Data taken from patent publication US20250051474A1, “ANTI-CD97 ANTIBODIES AND ANTIBODY-DRUG CONJUGATES” (New York University, priority 2023, published 2025).
Where two headings read alike, the source gives them in different places.

T1: CD97 (ADGRE5) isoform 1 ectodomain, purified and biotinylated (human, UniProt P48960 21-552, limits assumed, biotinylated in vitro using the BirA enzyme)
T1 construct: the whole entry for isoform 1 is named here; also called CD97 isoform 1; Biotinylated CD97 isoform 1
T1 sequence: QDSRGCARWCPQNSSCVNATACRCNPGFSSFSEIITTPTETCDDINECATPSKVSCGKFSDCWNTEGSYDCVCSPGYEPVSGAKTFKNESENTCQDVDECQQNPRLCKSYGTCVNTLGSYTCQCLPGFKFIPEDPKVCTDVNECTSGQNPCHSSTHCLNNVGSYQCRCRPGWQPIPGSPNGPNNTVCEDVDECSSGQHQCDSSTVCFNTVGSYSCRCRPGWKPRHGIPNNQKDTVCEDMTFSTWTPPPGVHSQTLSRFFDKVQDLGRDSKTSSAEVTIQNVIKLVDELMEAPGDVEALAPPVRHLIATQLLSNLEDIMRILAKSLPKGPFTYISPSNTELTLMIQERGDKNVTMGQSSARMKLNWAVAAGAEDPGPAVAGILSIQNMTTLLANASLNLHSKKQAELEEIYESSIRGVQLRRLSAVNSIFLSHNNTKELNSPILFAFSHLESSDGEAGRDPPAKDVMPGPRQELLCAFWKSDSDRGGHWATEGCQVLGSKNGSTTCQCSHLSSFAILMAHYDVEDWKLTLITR

T2: CD97 (ADGRE5) isoform 2 ectodomain, purified and biotinylated (human, UniProt P48960 21-552, biotinylated in vitro using the BirA enzyme)
T2 construct: the whole entry for isoform 2 is named here; also called CD97 isoform 2
T2 sequence: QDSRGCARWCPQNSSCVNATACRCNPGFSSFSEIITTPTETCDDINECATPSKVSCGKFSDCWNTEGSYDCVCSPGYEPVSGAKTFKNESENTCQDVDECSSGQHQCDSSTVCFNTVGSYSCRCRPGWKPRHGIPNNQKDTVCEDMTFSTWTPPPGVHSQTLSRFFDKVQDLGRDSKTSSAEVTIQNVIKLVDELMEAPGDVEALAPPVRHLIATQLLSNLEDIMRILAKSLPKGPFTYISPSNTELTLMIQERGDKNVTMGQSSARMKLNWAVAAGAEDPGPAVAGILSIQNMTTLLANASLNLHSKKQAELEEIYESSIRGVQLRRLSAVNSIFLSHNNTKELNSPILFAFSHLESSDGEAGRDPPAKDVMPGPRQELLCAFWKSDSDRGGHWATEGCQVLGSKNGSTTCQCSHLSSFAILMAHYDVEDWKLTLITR


Columns and labels:
[1] = biological target: T1, CD97 (ADGRE5) isoform 1 ectodomain, …; assay: bead-based binding titration (biotinylated antigen on streptavidin beads, flow cytometry), 1:1 fit
[2] = biological target: T2, CD97 (ADGRE5) isoform 2 ectodomain, …; assay: as above
[3] = biological target: T1, CD97 (ADGRE5) isoform 1 ectodomain, …; assay: as above; remark: listed apart in the source
[4] = biological target: T2, CD97 (ADGRE5) isoform 2 ectodomain, …; assay: as above; remark: listed apart in the source
[5] = biological target: Endogenous CD97 on the cell surface (human) (UniProt P48960); assay: cell-based binding titration on OCI-AML3 cells, flow cytometry, 1:1 fit

Row | Kd [1] [nM] | Kd [2] [nM] | Kd [5] [nM] | Binder | further results
1 | 0.9 | 0.9 |  | Fab B23 (Fab, V domains shown, first discovery campaign; also called Antibody Clone B23) VH: EVQLVESGGGLVQPGGSLRLSCAASGFTVSSSSIHWVRQAPGKGLEWVASIYPYSGSTSYADSVKGRFTISADTSKNTAYLQMNSLRAEDTAVYYCARSLGWHRHYNYYFYFYANAIDYWGQGTLVTVSS VL: DIQMTQSPSSLSASVGDRVTITCRASQSVSSAVAWYQQKPGKAPKLLIYSASSLYSGVPSRFSGSRSGTDFTLTISSLQPEDFATYYCQQYWGSDPITFGQGTKVEIKR | 
2 | 4.7 | 5 |  | Fab C14 (Fab, V domains shown, first discovery campaign; also called Antibody Clone C14) VH: EVQLVESGGGLVQPGGSLRLSCAASGFTVSSSSIHWVRQAPGKGLEWVASIYSYSGSTSYADSVKGRFTISADTSKNTAYLQMNSLRAEDTAVYYCARSFGWGQSFYYSHYFYITAFDYWGQGTLVTVSS VL: DIQMTQSPSSLSASVGDRVTITCRASQSVSSAVAWYQQKPGKAPKLLIYSASSLYSGVPSRFSGSRSGTDFTLTISSLQPEDFATYYCQQYWHESLITFGQGTKVEIKR | 
3 |  |  |  | Fab 2Z11 (Fab, V domains shown, second discovery campaign; biotinylated Fab in the bead assay; also called Antibody Clone 2Z11) VH: EVQLVESGGGLVQPGGSLRLSCAASGFTFYYSSIHWVRQAPGKGLEWVASIYSYSGYTSYADSVKGRFTISADTSKNTAYLQMNSLRAEDTAVYYCARYYISGPYYAYRSYTSYAMDYWGQGTLVTVSS VL: DIQMTQSPSSLSASVGDRVTITCRASQSVSSAVAWYQQKPGKAPKLLIYSASSLYSGVPSRFSGSRSGTDFTLTISSLQPEDFATYYCQQYWGYSLITFGQGTKVEIKR | Kd [3]: 3.4 nM; Kd [4]: 3 nM
4 | 1.7 | 1.7 |  | Fab A1 (Fab, V domains shown, first discovery campaign; also called Antibody Clone A1) VH: EVQLVESGGGLVQPGGSLRLSCAASGFTISSSSIHWVRQAPGKGLEWVASIYSYYGSTYYADSVKGRFTISADTSKNTAYLQMNSLRAEDTAVYYCARPVYGQLGYWTQRWSGMDYWGQGTLVTVSS VL: DIQMTQSPSSLSASVGDRVTITCRASQSVSSAVAWYQQKPGKAPKLLIYSASSLYSGVPSRFSGSRSGTDFTLTISSLQPEDFATYYCQQYSWSSYLITFGQGTKVEIKR | 
5 | 5.8 | 4.3 |  | Fab B3 (Fab, V domains shown, first discovery campaign; also called Antibody Clone B3) VH: EVQLVESGGGLVQPGGSLRLSCAASGFTFSSSSIHWVRQAPGKGLEWVASISPYSGYTSYADSVKGRFTISADTSKNTAYLQMNSLRAEDTAVYYCARAYYYWSHWYMHYVSYPGGMDYWGQGTLVTVSS VL: DIQMTQSPSSLSASVGDRVTITCRASQSVSSAVAWYQQKPGKAPKLLIYSASSLYSGVPSRFSGSRSGTDFTLTISSLQPEDFATYYCQQLRHYSHLITFGQGTKVEIKR | 
6 | 2.5 | 2.7 |  | Fab B34 (Fab, V domains shown, first discovery campaign; also called Antibody Clone B34) VH: EVQLVESGGGLVQPGGSLRLSCAASGFTVSYSSIHWVRQAPGKGLEWVASIYSSSGYTSYADSVKGRFTISADTSKNTAYLQMNSLRAEDTAVYYCARSYYRYYLSPIYWGSWGMDYWGQGTLVTVSS VL: DIQMTQSPSSLSASVGDRVTITCRASQSVSSAVAWYQQKPGKAPKLLIYSASSLYSGVPSRFSGSRSGTDFTLTISSLQPEDFATYYCQQSGYYGHLITFGQGTKVEIKR | 
7 |  |  | 1 | hIgG1_LALA D25 (antibody, V domains shown) VH: EVQLVESGGGLVQPGGSLRLSCAASGFTFSSSSIHWVRQAPGKGLEWVASISPYYGSTSYADSVKGRFTISADTSKNTAYLQMNSLRAEDTAVYYCARKLEWGMFFWSPYFRALDYWGQGTLVTVSS VL: DIQMTQSPSSLSASVGDRVTITCRASQSVSSAVAWYQQKPGKAPKLLIYSASSLYSGVPSRFSGSRSGTDFTLTISSLQPEDFATYYCQQSSSSLITFGQGTKVEIK | 
8 |  |  | 140 | hIgG1_LALA 2Z3 (antibody, V domains shown) VH: EVQLVESGGGLVQPGGSLRLSCAASGFTFSSSSIHWVRQAPGKGLEWVASISSSSGSTSYADSVKGRFTISADTSKNTAYLQMNSLRAEDTAVYYCARVLLGKFWYYNYYEYSAMDYWGQGTLVTVSS VL: DIQMTQSPSSLSASVGDRVTITCRASQSVSSAVAWYQQKPGKAPKLLIYSASSLYSGVPSRFSGSRSGTDFTLTISSLQPEDFATYYCQQSSSSLITFGQGTKVEIK | 
9 |  |  | 25 | hIgG1_LALA 2W1 (antibody, V domains shown) VH: EVQLVESGGGLVQPGGSLRLSCAASGFTVSSSSIHWVRQAPGKGLEWVAYISSSSGSTYYADSVKGRFTISADTSKNTAYLQMNSLRAEDTAVYYCARDFYFGSYYSFGWGLDYWGQGTLVTVSS VL: DIQMTQSPSSLSASVGDRVTITCRASQSVSSAVAWYQQKPGKAPKLLIYSASSLYSGVPSRFSGSRSGTDFTLTISSLQPEDFATYYCQQDSSYPITFGQGTKVEIK | 
10 |  |  | 9.6 | Antibody clone C27, human IgG1 LALA-PG format (antibody, V domains shown) VH: EVQLVESGGGLVQPGGSLRLSCAASGFTLSSSSIHWVRQAPGKGLEWVASIYSYYGSTYYADSVKGRFTISADTSKNTAYLQMNSLRAEDTAVYYCARYRGNMYYWESWYGSYWALDYWGQGTLVTVSS VL: DIQMTQSPSSLSASVGDRVTITCRASQSVSSAVAWYQQKPGKAPKLLIYSASSLYSGVPSRFSGSRSGTDFTLTISSLQPEDFATYYCQQSSSSLITFGQGTKVEIKR | 
11 | 2.3 | 2.9 |  | Fab B20 (Fab, V domains shown, first discovery campaign; also called Antibody Clone B20) VH: EVQLVESGGGLVQPGGSLRLSCAASGFTISSSSIHWVRQAPGKGLEWVASISSSSGSTSYADSVKGRFTISADTSKNTAYLQMNSLRAEDTAVYYCARIRHYHWYEIPYWDWAIDYWGQGTLVTVSS VL: DIQMTQSPSSLSASVGDRVTITCRASQSVSSAVAWYQQKPGKAPKLLIYSASSLYSGVPSRFSGSRSGTDFTLTISSLQPEDFATYYCQQSSSSLITFGQGTKVEIKR | 
12 | 5.8 | 5.5 |  | Fab B25 (Fab, V domains shown, first discovery campaign; also called Antibody Clone B25) VH: EVQLVESGGGLVQPGGSLRLSCAASGFTISSSSIHWVRQAPGKGLEWVASISSYSGSTSYADSVKGRFTISADTSKNTAYLQMNSLRAEDTAVYYCARSFFKYYLWYGYHNYWSAIDYWGQGTLVTVSS VL: DIQMTQSPSSLSASVGDRVTITCRASQSVSSAVAWYQQKPGKAPKLLIYSASSLYSGVPSRFSGSRSGTDFTLTISSLQPEDFATYYCQQSSSSLITFGQGTKVEIKR | 
13 |  |  | 0.3 | Antibody clone 2V10, human IgG1 LALA-PG format (antibody, V domains shown) VH: EVQLVESGGGLVQPGGSLRLSCAASGFTISSSSIHWVRQAPGKGLEWVAYIYPSSGSTSYADSVKGRFTISADTSKNTAYLQMNSLRAEDTAVYYCARPWYYSTFNKKWWDYQGLDYWGQGTLVTVSS VL: DIQMTQSPSSLSASVGDRVTITCRASQSVSSAVAWYQQKPGKAPKLLIYSASSLYSGVPSRFSGSRSGTDFTLTISSLQPEDFATYYCQQSWWDPITFGQGTKVEIKR | 
14 |  |  |  | Fab 2Z7 (Fab, V domains shown, second discovery campaign; biotinylated Fab in the bead assay; also called Antibody Clone 2Z7) VH: EVQLVESGGGLVQPGGSLRLSCAASGFTFSSSSIHWVRQAPGKGLEWVASISSSSGSTSYADSVKGRFTISADTSKNTAYLQMNSLRAEDTAVYYCARSYWERYYYWYYFYQYELGLDYWGQGTLVTVSS VL: DIQMTQSPSSLSASVGDRVTITCRASQSVSSAVAWYQQKPGKAPKLLIYSASSLYSGVPSRFSGSRSGTDFTLTISSLQPEDFATYYCQQSSSSLITFGQGTKVEIKR | Kd [3]: 38 nM; Kd [4]: 30 nM
